Data taken from paper PMC5187433, “A bromodomain–DNA interaction facilitates acetylation-dependent bivalent nucleosome recognition by the BET protein BRDT” (Nature Communications, 2016).

What was measured:
Assay in all cases: ITC
[1] = target: N-BRDT(1) 3KE K37E;K41E;K45E (Homo sapiens) (UniProt Q58F21); settings: histone H4K5acK8ac (H4 A15C ligation); EMSA: 20 mM Tris pH 7.5, 100 mM NaCl, 5 mM DTT, 0.5 mM EDTA, 4 C; ITC: 20 mM Tris pH 8.0, 150 mM NaCl, 1 mM EDTA, 1 mM TCEP, 20 C; NMR at 34 C
N-BRDT(1) (Homo sapiens) = N-BRDT(1) (Homo sapiens) (UniProt Q58F21); settings: EMSA: 20 mM Tris pH 7.5, 100 mM NaCl, 5 mM DTT, 0.5 mM EDTA, 4 C, ITC: 20 mM Tris pH 8.0, 150 mM NaCl, 1 mM EDTA, 1 mM TCEP, 20 C, NMR at 34 C
[2] = target: N-BRDT(1) 3KS K37S;K41S;K45S (Homo sapiens) (UniProt Q58F21); settings: histone H4K5acK8ac (H4 A15C ligation); EMSA: 20 mM Tris pH 7.5, 100 mM NaCl, 5 mM DTT, 0.5 mM EDTA, 4 C; ITC: 20 mM Tris pH 8.0, 150 mM NaCl, 1 mM EDTA, 1 mM TCEP, 20 C; NMR at 34 C
[3] = target: N-BRDT(1) K41S K41S (Homo sapiens) (UniProt Q58F21); settings: histone H4K5acK8ac (H4 A15C ligation); EMSA: 20 mM Tris pH 7.5, 100 mM NaCl, 5 mM DTT, 0.5 mM EDTA, 4 C; ITC: 20 mM Tris pH 8.0, 150 mM NaCl, 1 mM EDTA, 1 mM TCEP, 20 C; NMR at 34 C

Sequence: TCGGGGGCCGCCCTGGAGAATCCCGGTGCCGAGGCCGCTCAATTGGTCGTAGACAGCTCTAGCACCGCTTAAACGCACGTACGCGCTGTCCCCCGCGTTTTAACCGCCAAGGGGATTACTCCCTAGTCTCCAGGCACGTGTCAGATATATACATCCTGTGCATGTAC / CCGAGTACATGCACAGGATGTATATATCTGACACGTGCCTGGAGACTAGGGAGTAATCCCCTTGGCGGTTAAAACGCGGGGGACAGCGCGTACGTGCGTTTAAGCGGTGCTAGAGCTGTCTACGACCAATTGAGCGGCCTCGGCACCGGGATTCTCCAGGGCGGCCC [H4K5acK8ac nucleosome (167 bp Widom)]
- binding signal (fold reduced affinity vs WT) [1]: 5
- Kd (N-BRDT(1) (Homo sapiens); histone H4K5acK8ac (H4 A15C ligation)): 2 µM
- Kd [2]: 9 µM
- Kd [3]: 7 µM

Sequence: TCGGGGGCCGCCCTGGAGAATCCCGGTGCCGAGGCCGCTCAATTGGTCGTAGACAGCTCTAGCACCGCTTAAACGCACGTACGCGCTGTCCCCCGCGTTTTAACCGCCAAGGGGATTACTCCCTAGTCTCCAGGCACGTGTCAGATATATACATCCTGTGCATGTAC / CCGAGTACATGCACAGGATGTATATATCTGACACGTGCCTGGAGACTAGGGAGTAATCCCCTTGGCGGTTAAAACGCGGGGGACAGCGCGTACGTGCGTTTAAGCGGTGCTAGAGCTGTCTACGACCAATTGAGCGGCCTCGGCACCGGGATTCTCCAGGGCGGCCC [chimeric H3-H4K5acK8ac nucleosome (167 bp Widom)]
- Kd (N-BRDT(1) (Homo sapiens); H4K5acK8ac tail ligated to H3 core, WT H2A, H2B, H4): 5 µM
